In paper PMC6895263:
Residue numbers refer to the chain shown, from its start. Like-named read-outs stand apart in the source and are kept apart here.

Key:
ZBTB24 ZF4-8 [1] = biological target: T1, ZBTB24 ZF4-8 (Mus musculus, UniProt Q80X44 375-519); experiment: X-ray crystallography
T1 sequence: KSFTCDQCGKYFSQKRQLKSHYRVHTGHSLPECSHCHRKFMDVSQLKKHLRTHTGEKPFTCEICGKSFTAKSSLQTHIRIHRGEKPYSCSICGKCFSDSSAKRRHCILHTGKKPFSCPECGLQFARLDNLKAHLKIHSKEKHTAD

GST-ZBTB24 ZF1-8 C382Y = biological target: T2, GST-ZBTB24 ZF1-8 C382Y (Mus musculus, UniProt Q80X44 288-519, C382Y); experiment: EMSA
T2 sequence: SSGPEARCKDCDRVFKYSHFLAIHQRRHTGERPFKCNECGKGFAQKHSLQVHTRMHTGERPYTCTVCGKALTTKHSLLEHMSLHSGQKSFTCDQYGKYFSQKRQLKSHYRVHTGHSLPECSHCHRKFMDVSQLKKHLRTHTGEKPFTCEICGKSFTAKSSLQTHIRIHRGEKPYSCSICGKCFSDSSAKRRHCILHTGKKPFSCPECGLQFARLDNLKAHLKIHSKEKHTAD

GST-ZBTB24 ZF1-8 C407G = biological target: T3, GST-ZBTB24 ZF1-8 C407G (Mus musculus, UniProt Q80X44 288-519, C407G); experiment: EMSA
T3 sequence: T2 sequence with Y95C, C120G

ZBTB24 ZF4-8 [2] = biological target: T1, ZBTB24 ZF4-8; experiment: X-ray crystallography; remark: listed apart in the source

B1: TG oligo (6ML2) (dsDNA)
DNA 1: TTTAGCTGCCAGGACCTGCG
DNA 2: ACGCAGGTCCTGGCAGCTAA
ZBTB24 ZF4-8 [1]
  binding result: binds

B2: EMSA probe with ZBTB24 motif (dsDNA)
DNA 1: TCCACTGCCAGGACCTTT
DNA 2: AAAAGGTCCTGGCAGTGG
GST-ZBTB24 ZF1-8 C382Y
  binding result: no binding
GST-ZBTB24 ZF1-8 C407G
  binding result: no binding

B3: TT oligo (6ML3) (dsDNA)
DNA 1: TTTAGCTTCCAGGACCTGCG
DNA 2: ACGCAGGTCCTGGAAGCTAA
ZBTB24 ZF4-8 [1]
  binding result: binds

B4: GT oligo (6ML4) (dsDNA)
DNA 1: TGCTTCGTCCAGGACCTGCG
DNA 2: ACGCAGGTCCTGGACGAAGC
ZBTB24 ZF4-8 [2]
  binding result: binds
